In patent US20080305188A9, “Composition and method for supporting cancer treatments” (priority 2003, published 2008):
Like-named read-outs stand apart in the source and are kept apart here. Marks after values point to notes of the source that are not given here. Blank lines part the entries; values can stand above or below the molecule they belong to.

How the values were obtained:
[1] = system: BALB/c mice injected with 5-Fu; experiment: Blood cell counts in mice given 5-Fu (reduction of bone marrow suppression); assay type: in vivo
[2] = Body weight of mice given 5-Fu; assay type: in vivo
[3] = Pharmacokinetics study of intravenous injection of matrine or oxymatrine with addition of geranium oil (HPLC peak areas); conditions: with addition of geranium oil versus compound alone
white blood cells = conditions: taken orally; previously published animal experiments and clinical trials; cited from earlier work
[4] = in vivo, iv
[5] = Day 10, 5-Fu 135 mg/kg IP single dose only
[6] = Day 14, 5-Fu 135 mg/kg IP single dose only
[7] = Day 10, 135 μg/mouse G-CSF and 5-Fu
[8] = Day 14, 135 μg/mouse G-CSF and 5-Fu

Molecule: O=C1CCC[C@@H]2[C@H]3CCCN4CCC[C@@H](CN12)[C@@H]34 [matrine]
absorption and metabolism of the compound (changes in HPLC peak areas over time) [3]: increase the absorption and metabolism

B1: G-CSF/5-Fu: granulocyte colony-stimulating factor, comparison treatment given with 5-Fu (protein, UniProt P09919 31-207, looked up)
Granulocyte …: TPLGPASSLPQSFLLKCLEQVRKIQGDGAALQEKLVSECATYKLCHPEELVLLGHSLGIPWAPLSSCPSQALQLAGCLSQLHSGLFLYQGLLQALEGISPELGPTLDTLQLDVADFATTIWQQMEELGMAPALQPTQGAMPAFASAFQRRAGGVLVASHLQSFLEVSYRVLRHLAQP
GR (granulocytes) count [1, 7]: 0.71 ± 0.268** 10^3/μl
LY (lymphocytes) count [1, 7]: 5.01 ± 1.372* 10^3/μl
MO (monocytes) count [1, 7]: 0.38 ± 0.141* 10^3/μl
PLT (platelets) count [1, 7]: 2303 ± 491.7 10^3/μl
RBC (erythrocytes) count [1, 7]: 7.82 ± 0.424 10^6/μl
WBC (total leukocytes) count [1, 7]: 5.46±2.338 10^3/μl
bone marrow suppression effect (WBC) relative to that of 5-Fu only [1, 7]: 51%
suppression effect with respect to granulocytes relative to 5-Fu only [1, 7]: 54%
suppression effect with respect to lymphocytes relative to 5-Fu only [1, 7]: 18%
suppression effect with respect to monocytes relative to 5-Fu only [1, 7]: 7%
WBC (total leukocytes) count ([1]; Day 10, 135 μg/mouse G-CSF and 5-Fu, listed as C-GSF/5-Fu): 5.46 ± 2.338 10^3/μl
GR (granulocytes) count [1, 8]: 1.64 ± 0.405 10^3/μl
LY (lymphocytes) count [1, 8]: 6.12 ± 1.164 10^3/μl
MO (monocytes) count [1, 8]: 0.58 ± 0.266 10^3/μl
PLT (platelets) count [1, 8]: 2105 ± 378.1 10^3/μl
RBC (erythrocytes) count [1, 8]: 8.02 ± 0.340 10^6/μl
WBC (total leukocytes) count [1, 8]: 8.34 ± 1.454 10^3/μl
total leukocyte count and lymphocyte count (only these) versus 5-Fu only [1, 8]: continued to increase to a higher level than that of mice treated with 5-Fu only
weight of mice ([2]; Day 0, G-CSF and 5-Fu, in g): 22.0 ± 1.84
weight of mice ([2]; Day 14, G-CSF and 5-Fu, in g): 24.0 ± 1.64
weight of mice ([2]; Day -2, G-CSF and 5-Fu, in g): 20.5 ± 1.76

Now from value to molecule, other results behind:

GR (granulocytes) count [1, 5]: 0.25 ± 0.050 10^3/μl
LY (lymphocytes) count [1, 5]: 3.66 ± 0.648 10^3/μl
MO (monocytes) count [1, 5]: 0.25 ± 0.046 10^3/μl
PLT (platelets) count [1, 5]: 2828 ± 632.4 10^3/μl
RBC (erythrocytes) count [1, 5]: 7.86 ± 0.171 10^6/μl
WBC (total leukocytes) count [1, 5]: 4.17±0.677 10^3/μl
GR (granulocytes) count [1, 6]: 1.65 ± 0.756 10^3/μl
LY (lymphocytes) count [1, 6]: 5.75 ± 0.880 10^3/μl
MO (monocytes) count [1, 6]: 0.59 ± 0.316 10^3/μl
PLT (platelets) count [1, 6]: 2219 ± 750.2 10^3/μl
RBC (erythrocytes) count [1, 6]: 8.09 ± 0.331 10^6/μl
WBC (total leukocytes) count [1, 6]: 7.98 ± 1.575 10^3/μl
Molecule: O=c1[nH]cc(F)c(=O)[nH]1 [5-Fu, 5-Fluorouracil, reference compound]
weight of mice ([2]; Day 0, 5-Fu only group, in g): 22.0 ± 0.93
weight of mice ([2]; Day 10, 5-Fu only group): 22.3 ± 1.53 g
weight of mice ([2]; Day 14, 5-Fu only group, in g): 23.5 ± 0.78
weight of mice ([2]; Day -2, 5-Fu only group, in g): 20.7 ± 0.90

absorption and metabolism of the compound (changes in HPLC peak areas over time) [4]: increase the absorption and metabolism
Molecule: O=C1CCC[C@@H]2[C@H]3CCC[N+]4([O-])CCC[C@@H](CN12)[C@@H]34 (stereo partly shown) [oxymatrine]
effect on increasing white blood cells (white blood cells): does not show any effect on increasing white blood cells
